Laboratory results reported in patent publication US20160168225A1 (Sanofi, published 2016).
Square brackets hold non-standard residues; d marks the D form. Ends that are not written are not given here. Aib = CC(C)(N)C(=O)O

Target: human GLP-1 receptor (human, UniProt P43220 24-463)
Experiment: cell-based or functional assay

Binder: H[Aib]QGTFTSDLSKQLDEQRA[(S)MeLys]DFIEWLIAGGPSSGAPPPS-NH2 [SEQ ID NO: 14]
- EC50 hGLP-1R (cAMP formation, HTRF, HEK-293 cells): 1 pM
